Source: patent US20250262210A1 (TRUSTEES OF COLUMBIA UNIVERSITY IN THE CITY OF NEW YORK, published 2025)

Assays:
Test in all cases: IP/MS, LZTR1 R810W-FLAG, U87
CA9 = CA9 (human, UniProt Q16790 38-459)
Summary of the method: (§1)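 Extracted peptides in 3% acetonitrile/0.1% formic acid ran on a 50 cm C18 column into an Orbitrap Fusion, with MaxQuant identification and spectral counting.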

CRYBG1 = CRYBG1 (human, UniProt Q9Y4K1 1-2131, limits assumed)
Summary of the method: as §1

IFT172 = IFT172 (human, UniProt Q9UG01 1-1749, limits assumed)
Summary of the method: as §1

ARHGEF40 = ARHGEF40 (human, UniProt Q8TER5 1-1519, limits assumed)
Summary of the method: as §1

TTC27 = TTC27 (human, UniProt Q6P3X3 1-843)
Summary of the method: as §1

PARP10 = biological target: T1, PARP10 (human, UniProt Q53GL7 1-1025)
T1 sequence (looked up): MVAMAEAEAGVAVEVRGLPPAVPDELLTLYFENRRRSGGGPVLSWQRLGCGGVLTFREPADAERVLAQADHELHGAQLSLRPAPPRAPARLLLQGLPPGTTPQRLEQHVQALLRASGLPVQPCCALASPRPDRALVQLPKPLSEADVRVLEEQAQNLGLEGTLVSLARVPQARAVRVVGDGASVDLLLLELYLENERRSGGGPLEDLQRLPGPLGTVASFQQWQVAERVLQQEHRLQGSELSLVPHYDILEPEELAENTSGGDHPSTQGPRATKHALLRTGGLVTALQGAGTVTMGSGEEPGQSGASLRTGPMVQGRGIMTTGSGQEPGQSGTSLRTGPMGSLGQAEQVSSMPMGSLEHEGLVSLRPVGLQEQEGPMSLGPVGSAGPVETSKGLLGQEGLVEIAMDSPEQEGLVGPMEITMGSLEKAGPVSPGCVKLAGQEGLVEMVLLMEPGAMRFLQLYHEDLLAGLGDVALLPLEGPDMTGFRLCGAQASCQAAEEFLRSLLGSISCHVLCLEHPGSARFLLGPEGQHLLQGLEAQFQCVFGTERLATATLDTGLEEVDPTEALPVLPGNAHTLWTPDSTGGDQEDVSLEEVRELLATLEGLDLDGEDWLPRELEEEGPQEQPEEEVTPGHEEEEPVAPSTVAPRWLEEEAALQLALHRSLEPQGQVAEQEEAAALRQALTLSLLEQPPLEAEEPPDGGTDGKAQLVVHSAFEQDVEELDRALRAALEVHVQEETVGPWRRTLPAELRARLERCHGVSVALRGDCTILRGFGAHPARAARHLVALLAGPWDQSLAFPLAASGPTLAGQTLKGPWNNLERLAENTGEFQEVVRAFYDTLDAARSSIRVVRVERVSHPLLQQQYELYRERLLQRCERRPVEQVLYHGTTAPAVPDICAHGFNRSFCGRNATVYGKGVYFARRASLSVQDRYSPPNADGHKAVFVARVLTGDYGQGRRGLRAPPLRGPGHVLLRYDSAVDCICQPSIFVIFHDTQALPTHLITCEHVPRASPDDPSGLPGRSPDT
Summary of the method: as §1

THADA = THADA (human, UniProt Q6YHU6 1-1953, limits assumed)
Summary of the method: as §1

Measured: binding result

Chain of ARHGEF40 (Q8TER5 whole entry): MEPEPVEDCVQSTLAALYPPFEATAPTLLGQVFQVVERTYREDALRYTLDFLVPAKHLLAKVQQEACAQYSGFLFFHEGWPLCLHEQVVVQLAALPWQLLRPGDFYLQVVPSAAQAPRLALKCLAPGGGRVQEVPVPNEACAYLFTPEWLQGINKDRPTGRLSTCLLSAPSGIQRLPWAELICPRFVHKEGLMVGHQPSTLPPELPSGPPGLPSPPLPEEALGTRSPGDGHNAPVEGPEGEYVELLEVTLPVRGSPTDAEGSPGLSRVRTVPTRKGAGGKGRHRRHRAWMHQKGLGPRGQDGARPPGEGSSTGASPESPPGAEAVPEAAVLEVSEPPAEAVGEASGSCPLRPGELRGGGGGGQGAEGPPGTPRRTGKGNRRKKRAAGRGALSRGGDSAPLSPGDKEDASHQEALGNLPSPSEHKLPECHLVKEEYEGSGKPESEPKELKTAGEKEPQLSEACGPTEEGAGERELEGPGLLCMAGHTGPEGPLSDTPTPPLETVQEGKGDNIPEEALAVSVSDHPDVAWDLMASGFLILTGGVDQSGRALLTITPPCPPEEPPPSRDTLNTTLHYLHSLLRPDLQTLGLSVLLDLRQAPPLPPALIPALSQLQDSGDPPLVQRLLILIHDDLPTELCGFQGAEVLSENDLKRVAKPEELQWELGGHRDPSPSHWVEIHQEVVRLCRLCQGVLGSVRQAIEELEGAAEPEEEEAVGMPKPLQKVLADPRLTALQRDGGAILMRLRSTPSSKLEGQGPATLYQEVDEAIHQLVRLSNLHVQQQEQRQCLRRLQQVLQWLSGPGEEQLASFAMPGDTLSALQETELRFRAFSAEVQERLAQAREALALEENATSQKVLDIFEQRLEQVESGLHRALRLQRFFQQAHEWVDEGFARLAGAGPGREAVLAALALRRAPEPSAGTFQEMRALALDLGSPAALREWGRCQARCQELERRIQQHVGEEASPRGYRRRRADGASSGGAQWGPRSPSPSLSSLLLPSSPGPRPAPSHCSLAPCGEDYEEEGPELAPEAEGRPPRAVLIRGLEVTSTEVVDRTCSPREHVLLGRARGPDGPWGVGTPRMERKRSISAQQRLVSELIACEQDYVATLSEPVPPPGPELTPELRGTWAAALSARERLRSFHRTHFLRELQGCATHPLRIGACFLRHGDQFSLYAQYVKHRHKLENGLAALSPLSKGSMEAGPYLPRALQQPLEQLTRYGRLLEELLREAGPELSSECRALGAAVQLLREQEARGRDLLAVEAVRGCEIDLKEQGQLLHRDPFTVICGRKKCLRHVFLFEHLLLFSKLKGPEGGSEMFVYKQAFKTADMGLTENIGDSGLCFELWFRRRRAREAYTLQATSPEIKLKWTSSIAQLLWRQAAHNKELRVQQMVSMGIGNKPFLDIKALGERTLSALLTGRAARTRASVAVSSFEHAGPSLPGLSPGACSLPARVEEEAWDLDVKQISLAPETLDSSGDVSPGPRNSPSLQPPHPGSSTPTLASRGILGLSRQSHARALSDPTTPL
Chain of THADA (Q6YHU6 whole entry): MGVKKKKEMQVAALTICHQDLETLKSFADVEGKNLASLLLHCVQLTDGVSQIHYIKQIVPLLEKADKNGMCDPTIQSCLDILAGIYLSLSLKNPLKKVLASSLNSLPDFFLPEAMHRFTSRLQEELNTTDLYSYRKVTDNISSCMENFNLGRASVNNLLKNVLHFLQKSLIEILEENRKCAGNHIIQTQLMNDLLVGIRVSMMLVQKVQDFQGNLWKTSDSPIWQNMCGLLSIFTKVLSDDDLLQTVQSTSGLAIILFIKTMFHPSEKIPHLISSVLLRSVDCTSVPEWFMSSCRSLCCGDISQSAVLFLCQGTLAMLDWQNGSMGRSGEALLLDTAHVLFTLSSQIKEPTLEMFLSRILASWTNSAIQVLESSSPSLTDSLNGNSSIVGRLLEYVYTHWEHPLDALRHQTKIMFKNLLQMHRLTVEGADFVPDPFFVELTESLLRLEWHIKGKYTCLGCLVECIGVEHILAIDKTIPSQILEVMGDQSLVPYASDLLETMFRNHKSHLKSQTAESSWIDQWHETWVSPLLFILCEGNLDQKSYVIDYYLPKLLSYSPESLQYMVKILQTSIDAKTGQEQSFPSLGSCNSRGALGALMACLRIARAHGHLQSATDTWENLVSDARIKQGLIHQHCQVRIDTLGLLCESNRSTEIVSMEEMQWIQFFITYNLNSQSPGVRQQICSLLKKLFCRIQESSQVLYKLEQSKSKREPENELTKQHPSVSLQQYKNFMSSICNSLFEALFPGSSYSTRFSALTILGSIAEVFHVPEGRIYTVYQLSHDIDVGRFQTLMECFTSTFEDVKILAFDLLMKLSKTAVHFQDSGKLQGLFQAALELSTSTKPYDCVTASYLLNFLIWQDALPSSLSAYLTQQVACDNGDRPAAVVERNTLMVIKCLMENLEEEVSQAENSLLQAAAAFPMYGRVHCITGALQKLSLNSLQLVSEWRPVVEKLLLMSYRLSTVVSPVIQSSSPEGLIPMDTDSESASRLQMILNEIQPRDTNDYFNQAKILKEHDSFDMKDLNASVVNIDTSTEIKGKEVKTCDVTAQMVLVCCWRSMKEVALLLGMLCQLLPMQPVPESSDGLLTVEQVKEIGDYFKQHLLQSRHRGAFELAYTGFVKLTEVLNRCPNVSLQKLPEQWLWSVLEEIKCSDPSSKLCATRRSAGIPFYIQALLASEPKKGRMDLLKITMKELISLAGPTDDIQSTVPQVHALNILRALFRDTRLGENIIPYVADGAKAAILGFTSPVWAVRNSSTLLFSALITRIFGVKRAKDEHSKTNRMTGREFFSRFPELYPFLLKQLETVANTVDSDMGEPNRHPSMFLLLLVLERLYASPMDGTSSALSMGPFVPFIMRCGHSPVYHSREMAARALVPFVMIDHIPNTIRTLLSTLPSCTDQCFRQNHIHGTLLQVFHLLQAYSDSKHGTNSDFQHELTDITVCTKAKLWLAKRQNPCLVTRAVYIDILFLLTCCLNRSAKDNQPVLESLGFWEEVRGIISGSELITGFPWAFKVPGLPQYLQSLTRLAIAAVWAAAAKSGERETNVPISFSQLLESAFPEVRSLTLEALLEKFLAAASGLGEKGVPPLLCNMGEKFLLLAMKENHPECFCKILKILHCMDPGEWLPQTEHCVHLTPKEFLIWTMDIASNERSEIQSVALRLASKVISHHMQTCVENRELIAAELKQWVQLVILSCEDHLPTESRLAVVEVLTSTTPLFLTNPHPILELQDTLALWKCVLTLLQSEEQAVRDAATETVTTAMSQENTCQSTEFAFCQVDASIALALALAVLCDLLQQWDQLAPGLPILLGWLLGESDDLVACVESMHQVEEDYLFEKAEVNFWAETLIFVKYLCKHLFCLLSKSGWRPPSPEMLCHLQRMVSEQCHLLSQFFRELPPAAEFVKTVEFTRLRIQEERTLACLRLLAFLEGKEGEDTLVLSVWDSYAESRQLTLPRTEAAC

B1: LZTR1 R810W-FLAG (other, human, UniProt Q8N653 1-840, looked up)
chain: MAGPGSTGGQIGAAALAGGARSKVAPSVDFDHSCSDSVEYLTLNFGPFETVHRWRRLPPCDEFVGARRSKHTVVAYKDAIYVFGGDNGKTMLNDLLRFDVKDCSWCRAFTTGTPPAPRYHHSAVVYGSSMFVFGGYTGDIYSNSNLKNKNDLFEYKFATGQWTEWKIEGRLPVARSAHGATVYSDKLWIFAGYDGNARLNDMWTIGLQDRELTCWEEVAQSGEIPPSCCNFPVAVCRDKMFVFSGQSGAKITNNLFQFEFKDKTWTRIPTEHLLRGSPPPPQRRYGHTMVAFDRHLYVFGGAADNTLPNELHCYDVDFQTWEVVQPSSDSEVGGAEVPERACASEEVPTLTYEERVGFKKSRDVFGLDFGTTSAKQPTQPASELPSGRLFHAAAVISDAMYIFGGTVDNNIRSGEMYRFQFSCYPKCTLHEDYGRLWESRQFCDVEFVLGEKEECVQGHVAIVTARSRWLRRKITQARERLAQKLEQEAAPVPREAPGVAAGGARPPLLHVAIREAEARPFEVLMQFLYTDKIKYPRKGHVEDVLLIMDVYKLALSFQLCRLEQLCRQYIEASVDLQNVLVVCESAARLQLSQLKEHCLNFVVKESHFNQVIMMKEFERLSSPLIVEIVRRKQQPPPRTPLDQPVDIGTSLIQDMKAYLEGAGAEFCDITLLLDGHPRPAHKAILAARSSYFEAMFRSFMPEDGQVNISIGEMVPSRQAFESMLRYIYYGEVNMPPEDSLYLFAAPYYYGFYNNRLQAYCKQNLEMNVTVQNVLQILEAADKTQALDMKRHCLHIIVHQFTKVSKLPTLWSLSQQLLLDIIDSLASHISDKQCAELGADI
notes: Stably expressed in U87 cells by lentivirus; also called LZTR1-FLAG-R810W; LZTR1 RW; not shown: FLAG tag
binds: CA9 | CRYBG1 | IFT172 | ARHGEF40 | TTC27 | PARP10 | THADA
